The values below come from US20200140517A1 (CASE WESTERN RESERVE UNIVERSITY, published 2020).

The target of test [1] is T1, A isoform of the insulin receptor (UniProt P06213-2 28-1370, limits assumed).
T1 construct: also called IR-A
Nature of the test: receptor binding affinity, method not described; reference: human insulin; data not shown.

Substrate in test [2]: B isoform of the insulin receptor (UniProt P06213)
The experiment in a line: receptor binding affinity, method not described; reference: wild type human insulin.

“And” between values parts separate entries of the source, which are not always exact repeats. Equal values may be shown once. Positions of bridges follow the written chain, without caps; N, C: chain ends. No end group written: not given here.

B1: 4SS 81-04 (SCI-2; 57-mer single-chain insulin analogue with fourth disulfide bridge, cystine B4-A10) (ligand)
chain: FVNCHLCGSHLVEALYLVCGERGFFYTDPTEEGPRRGIVEQCCHSCCSLEQLENYCN
modifications: disulfide 4-46; also: three canonical disulfides, pairing not given here
notes: Single polypeptide chain (B domain, 6-residue C domain EEGPRR, A domain), expressed in Pichia pastoris; Cys at B4 and A10 form a fourth disulfide bridge beside the three canonical ones; also called 57mer SCI-2
Consider B1, for which the “affinity relative to human insulin” value in test [1] was found to be 120 percent. Further, in test [2], the fold reduction of affinity relative to wild type human insulin is 5 fold and 10 fold.
